Source: patent US12630630 (SHANGHAI HENLIUS BIOTECH, dated 2026)
Where a chain is given by its changes, count along the chain named.

Target: T1, CD47 on human cells (Raji, Jurkat, red blood cells) (human, UniProt Q08722 19-311)
T1 construct: Endogenous CD47 on Raji, Jurkat and red blood cells; also called IAP; MER6
Experiment: flow cytometry competition: antibody and a fixed concentration of biotin-human SIRPα-Fc co-incubated with CD47-expressing cells (Jurkat in Example 2; the legend also names Raji), streptavidin-PE
Description: Example 2. […] CD47-expressing cells (Jurkat) (1E5 cells/well) were washed and resuspended in FACS buffer (1×PBS with 2% FBS). […] Flow cytometric analyses were performed using the Cytomics FC 500 (Beckman Coulter Inc.).
IgG isotype control (an anti-PD1 antibody) were used as a negative control.

B1: Clone M1 (antibody, human IgG4 S228P, lambda, V domains shown)
VH: QVQLQQWGAGLLKPSETLSLTCAVYGGSFSGYYWSWIRQPPGKGLEWIGEINHSGSTNYNPSLKSRVTISVDTSKNQFSLRLSSVTAADTAMYYCARFTGRPYYGMDVWGQGTTVTVSS
VL: LSYELTQPPSVSATPGQRVTISCSGSESNIGSHKVKWYQQFAGAAPRLLIHGNDQRRSGVPDRFSGSKSGTSASLAISGLQSEDEADYYCAAWDDSLNGRVFGGGTKLTVLG
notes: also called antibody clone M1
IC50 (read off the curve): ~1 µg/mL

B2: Clone M1 #46 (antibody, human IgG4 S228P, lambda, V domains shown)
VH: B1 VH with T99S
VL: B1 VL with N98Y
IC50 (read off the curve): ~0.2 µg/mL

B3: Clone M1 #11 (antibody, human IgG4 S228P, lambda, V domains shown)
VH: B1 VH with T99H
VL: B1 VL with S58R, N98Y
IC50 (read off the curve): ~0.06 µg/mL

B4: Clone M1 #21 (antibody, human IgG4 S228P, lambda, V domains shown)
VH: B1 VH with H53Q
VL: B1 VL with R57F, N98Y
IC50 (read off the curve): ~0.08 µg/mL
